Each block holds one binder with its values, some of them ahead of it. Starred links: 1 amine or outer side, 2 acyl side, 3 side chain; linkers in the order of their positions; H or OH if unused. Non-standard residues stand in square brackets, D forms with d. No end group written: not given here. Lys(Me3) = C[N+](C)(C)CCCC[C@H](N)C(=O)O; Ethylenediamine = C(CN[*:2])N[*:1]; 5‑FAM = 5-carboxyfluorescein; GABA = NCCCC(=O)O
Experiments:
[1] = molecular target: Full length HDAC1(aa:1–482) (UniProt Q13547 1-482); assay: co-IP + SEC; FLAG-tagged bait transfected in HEK293F (with untagged partners where stated); lysate on anti-FLAG M2 resin, washed in 50 mM Tris/HCl pH 7.5, 50 mM potassium acetate, eluted by TEV protease, then Superdex S200 gel filtration; fractions on SDS-PAGE, bands identified by mass spectrometry; details: partners not purified
[2] = molecular target: T1, E. coli expressed BAHD1(aa:588–780) (UniProt Q8TBE0 588-780); assay: fluorescence polarisation; 5 nM 5-FAM labelled histone peptide, BAHD1(aa:588–780) 0–142 μM, 25 mM Tris/Cl pH 7.5, 50 mM NaCl, 15 min at 37°C; one-site binding model; details: both partners purified
T1 construct: BAHD1, BAH domain, aa 588-780; also called BAH domain of BAHD1; source: E. coli expressed
T1 sequence (looked up): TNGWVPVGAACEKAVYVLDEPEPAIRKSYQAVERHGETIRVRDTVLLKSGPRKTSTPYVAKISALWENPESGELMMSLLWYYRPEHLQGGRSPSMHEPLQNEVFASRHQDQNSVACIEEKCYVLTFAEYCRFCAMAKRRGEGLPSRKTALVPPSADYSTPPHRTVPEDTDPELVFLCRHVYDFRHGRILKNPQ

Chain of Full length HDAC1(aa:1–482) (Q13547 whole entry): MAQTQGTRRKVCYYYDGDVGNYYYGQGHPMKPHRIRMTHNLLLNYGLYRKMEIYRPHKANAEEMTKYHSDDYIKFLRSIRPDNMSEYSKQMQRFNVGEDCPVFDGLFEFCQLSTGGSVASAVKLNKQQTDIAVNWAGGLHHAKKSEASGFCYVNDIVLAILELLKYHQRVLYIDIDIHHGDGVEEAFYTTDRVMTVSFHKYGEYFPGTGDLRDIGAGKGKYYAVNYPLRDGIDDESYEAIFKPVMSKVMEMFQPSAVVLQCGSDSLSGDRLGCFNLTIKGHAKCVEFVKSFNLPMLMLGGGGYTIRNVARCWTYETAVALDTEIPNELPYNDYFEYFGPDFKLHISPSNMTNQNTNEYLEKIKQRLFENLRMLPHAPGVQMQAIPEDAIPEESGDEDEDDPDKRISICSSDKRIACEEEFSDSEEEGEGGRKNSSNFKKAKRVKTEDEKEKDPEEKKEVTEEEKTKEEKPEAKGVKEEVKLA

- binding result [1]: binds
B1: FLAG-tagged MIER1 ELM2-SANT (aa:171–350) (domain or fragment, UniProt Q8N108 171-350, looked up)
chain: DYIPSEDWKKEIMVGSMFQAEIPVGICRYKENEKVYENDDQLLWDPEYLPEDKVIIFLKDASRRTGDEKGVEAIPEGSHIKDNEQALYELVKCNFDTEEALRRLRFNVKAAREELSVWTEEECRNFEQGLKAYGKDFHLIQANKVRTRSVGECVAFYYMWKKSERYDFFAQQTRFGKKKY
notes: The tag holds the protein on the anti-FLAG resin; it is cut off by TEV protease for elution, before gel filtration and SEC-MALS; also called isolated ELM2-SANT domain; source: HEK293F, co-transfected with HDAC1; anti-FLAG resin, TEV, Superdex S200; not shown: 10xHis-3xFLAG, N-terminal, kept

- binding result [2]: binds
B2: H3 16–35 K27me3 peptide (peptide)
peptide: PRKQLATKAAR[Lys(Me3)]SAPATGG-{Ethylenediamine-GABA-5‑FAM}
notes: Histone H3 tail peptide, named H3 16–35; also called H3 histone tail bearing a K27me3 modification; source: synthetic peptide, bought: Cambridge Research Biochemicals
